Consider 11 molecules from patent US20260263521A1, “ANTI-CD200R1 ANTIBODY AND USE THEREOF” (AIMED BIO INC., priority 2023, published 2026).

Changes are numbered by the printed parent chain. In names and notes the source's numbering stands.

For experiment [1], the target named is T1, CD200R1 on Jurkat-CD200R1 cells (Homo sapiens, UniProt Q8TD46).
T1 construct: host or cells: Jurkat
T1 sequence (Q8TD46 25-348): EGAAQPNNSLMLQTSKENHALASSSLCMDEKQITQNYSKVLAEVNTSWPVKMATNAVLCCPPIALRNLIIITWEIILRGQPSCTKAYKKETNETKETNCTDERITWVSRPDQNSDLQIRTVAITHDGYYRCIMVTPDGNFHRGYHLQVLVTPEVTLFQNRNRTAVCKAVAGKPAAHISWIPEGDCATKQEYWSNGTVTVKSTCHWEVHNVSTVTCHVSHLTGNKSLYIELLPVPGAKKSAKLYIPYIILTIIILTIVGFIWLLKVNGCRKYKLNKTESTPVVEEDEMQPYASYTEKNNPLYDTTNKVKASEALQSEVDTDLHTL
The experiment is described as follows: Cell binding assay (flow cytometry), Jurkat-CD200R1 cells. In kind it is cell-based. Particulars: Jurkat-CD200R1 cells; 500 nM; IgG1 form. The protocol: (§1) The binding ability of the antibodies identified using unique multifaceted antibody discovery technology was identified in HH (CRL-2105) cells, which endogenously express CD200R1, and Jurkat-CD200R1 cells (Source: DiscoverX), which were generated by intranuclear injection of CD200R1 cDNA.
(§2) HH and Jurkat-CD200R1 cells were maintained in RPMI 1640 medium supplemented with 10% heat-inactivated FBS and 1% Penicillin/Streptomycin (P/S). The cells were washed by centrifugation at 130 g for 5 minutes. The cells were seeded onto 96-well round-bottom plates (SPL, #34296) at a density of 1×10^5 cells/well in Flow cytometry staining buffer (Invitrogen, #00-4222-26) or FACS buffer. The cells were treated with all 16 substances and the positive control LY3454738 (US 2020/0087395, I-4P, at Eli Lilly) a concentration of 500 nM in the IgG1 form. After incubation for 1 hour at 4° C., the cells were treated with Alexa-647 Goat anti-human IgG (H+L) cross-adsorbed secondary antibody (Invitrogen, #A21445) and incubated at 4° C. for an additional 30 minutes. […]
(§3) Cell-binding ability was determined in the same manner as in Example 12. For the six active substances primarily selected in Example 12, the isotype was changed to IgG4 or the LALAPG gene was mutated, and binding activity was determined in the two cell lines mentioned above.
(§4) Binding ability was determined in HH, an endogenous T cell line with high CD200R1 expression, and two additional overexpressing cell lines: U937-CD200R overexpressing cells, generated by intranuclear injection of human CD200R1 CDNA into the monocytic cell line U937 (CRL-1593.2) (Source: UMC Utrecht, the Netherlands) and Jurkat-CD200R overexpressing cells, were also cells engineered using a similar method.
(§5) All cell lines were maintained in RPMI 1640 medium supplemented with 10% heat-inactivated FBS and 1% penicillin/streptomycin (P/S) and cell binding was determined in the same manner as in Example 12. […]
(§6) Specific binding ability was determined using P001009 WT and antibody-optimized mutants, P001009v1, P001009v2, P001009v3, and P001009v4. […]

In experiment [2] the target is T2, CD200R1 on HH (CRL-2105) cells (Homo sapiens, UniProt Q8TD46).
T2 construct: HH (CRL-2105) cells, which endogenously express CD200R1; host or cells: HH (CRL-2105) cells
T2 sequence (Q8TD46 25-348): T1 sequence (Q8TD46 25-348)
The experiment is described as follows: Cell binding assay (flow cytometry), HH cells. Particulars: HH cells; 500 nM; IgG1 form. In kind it is cell-based. As for the experimental part: as §1, §2, §3, §4, §5, §6

For experiment [3], the target named is T3, human CD200R1 (Homo sapiens, UniProt Q8TD46).
T3 sequence (Q8TD46 25-348): T1 sequence (Q8TD46 25-348)
The experiment is described as follows: ELISA binding to human CD200R1. Particulars: for binding ability to human CD200R1 compared to parent: ELISA, Example 14; for affinity compared with P001018 clone: scFv mutants, antigen binding (ELISA) and cell binding (FACS). The protocol:
96-well plates were coated with human CD200R1 (R&D systems, 3414-CD) and mouse CD200R1 protein (R&D systems, 2554-CD) at a concentration of 2 μg/mL at 4° C. for 16 hours and then were blocked with 3% skim milk. The result was treated with the antibodies at concentrations of 300 nM, 60 nM, 12 nM, 2.4 nM, 0.48 nM, 0.096 nM, and 0.0192 nM, and reacted at room temperature for 2 hours.
The result was washed with PBST and distilled water, the samples were bound with a goat-derived HRP-conjugated anti-human antibody (Invitrogen, 31482, Goat anti-Human IgG F(ab′)2 Secondary Antibody, HRP) for 1 hour at room temperature, and then washed again with PBST and distilled water. Color was developed with a TMB substrate solution (Thermo Scientific, 34029, 1-Step™ TMB-ELISA Ultra Substrate Solution). The color reaction was stopped with stop solution (Invitrogen, SS04, ELISA Stop Solution). The absorbance was measured at an optical density of 450 nm.

A further experiment concerns monkey CD200R1. The experiment is described as follows: ELISA binding to monkey CD200R1. Particulars: Example 14. An excerpt: Therefore, the LC D51 and LC D92 sequences were not substituted during the optimization process. However, since LC N30 and LC N31 can play an important role in the specific binding of antibodies as paratopes, the sequences were substituted and optimized. Through rational design, LC S52 and LC S94 were substituted with K and R, respectively, to derive P001009v1, and LC S52 and LC D93 were substituted with K and R, respectively, to derive P001009v2. Further, P001009v3, in which LC N30 was substituted with S, and P001009v4, in which LC N31 was substituted with K, were derived and produced, and the binding ability to human, mouse, and monkey CD200R1 was analyzed by ELISA (FIG. 15). […] Both […] and variants thereof had very weak binding ability to mouse CD200R1 at concentrations up to 300 nM.

Experiment [4] has as its target T3, human CD200R1. The experiment is described as follows: SPR binding kinetics, human CD200R1. Particulars: hCD200R1-his captured on anti-His CM5 chip, 1:1 Langmuir fit. As for the experimental part: (§7) The CD200R1-specific binding ability of the antibodies (P001009 wt, P001009 v1, P001009 v2, P001009 v3, P001009 v4) selected in Example 14 was analyzed using surface plasma resonance (SPR). For the experiment, 30 μg/mL of an anti-histidine antibody was conjugated to a CM5 biacore chip via an amine bond while allowing to flow at 10 μl/min (10,000 RU). Then, 0.25 μg/mL of human or cynomolgus CD200R1 with dual His-tags was captured onto the completed chip for 60 seconds, and the binding ability of each antibody was analyzed. All experiments were performed by association of antibodies for 120 seconds and dissociation of antibodies for 600 seconds. The resulting graphs were fitted using a 1:1 Langmuir binding kinetic model (FIG. 16), and the kinetics of each antibody were calculated.

A further experiment concerns cynomolgus CD200R1. The experiment is described as follows: SPR binding kinetics, cynomolgus CD200R1. Particulars: cynomolgus CD200R1-his captured on anti-His CM5 chip, 1:1 Langmuir fit. As for the experimental part: as §7

B1: ch1F1: clone discovered using hybridoma technology (1F1), tested in IgG1 form (antibody, V domains shown)
VH: QVQLQQPGAEFVKPGAPVKLSCKASGYTFTSYWMNWVKQRPGRGLEWIGRIDPADSEIHYNQKFKDKATLTVDKSSSTAYIQFSSLTSEDSAVYYCARSGGWLPGFAYWGQGTLVTVSA
VL: ENVLTQSPAIMSASPGEKVTMTCSASSSLIYMHWYQQKSSTSPKLWIYDTSKLASGVPGRFSGSGSGNSYSLTINSMEAEDVATYYCFQGSGYPLMYTFGGGTKLEIK
In the case of B1, the “cell binding ability” value in experiment [1] and in experiment [2] was “significant binding ability” throughout.

B2: P001009v2: P001009 variant, LC S52 and LC D93 substituted with K and R; VH SEQ ID NO: 79 (antibody, V domains shown)
VH: EVQLLESGGGLVQPGGSLRLSCAASGFTFSSYDMSWVRQAPGKGLEWVSWISHGGGSIYYADSVKGRFTISRDNSKNTLYLQMNSLRAEDTAVYYCARDAPAYSAPLFDYWGQGTLVTVSS
VL: QSVLTQPPSASGTPGQRVTISCSGSSSNIGNNAVNWYQQLPGTAPKLLIYYDKNRPSGVPDRFSGSKSGTSASLAISGLRSEDEADYYCAAWDRSLSGYVFGGGTKLTVL
For B2, the “binding ability to human CD200R1 compared to parent” value with human CD200R1 [3] is “reduced”. The “binding ability to monkey CD200R1 compared to parent” value in the experiment with monkey CD200R1 was “significantly improved”. Moreover, the Ka with human CD200R1 [4] came out at 7.52e+06 M⁻¹ s⁻¹; with cynomolgus CD200R1 it was 2.82e+06 M⁻¹ s⁻¹.

B3: P001009v4: P001009 variant, LC N31 substituted with K; VH SEQ ID NO: 79 (antibody, V domains shown)
VH: B2 VH
VL: B2 VL with N32K, K53S, R94D
As for B3, in the experiment with human CD200R1 [3], the “binding ability to human CD200R1 compared to parent” value is reported as “reduced”. Also, the “binding ability to monkey CD200R1 compared to parent” value in the experiment on monkey CD200R1 is “improved”. In addition, the Ka with human CD200R1 [4] worked out at 6.74e+06 M⁻¹ s⁻¹; in the experiment with cynomolgus CD200R1, 3.71e+06 M⁻¹ s⁻¹.

B4: H3-Y102K: P001018 scFv mutant, SEQ ID NO: 164 (protein)
scFv: QVQLVQSGAEVKKPGASVKVSCKASGYTFTSYVMHWVRQAPGQGLEWMGYINPYNDDTNYNEKFKGRVTMTRDTSTSTVYMELSSLRSEDTAVYYCAREDYYGSRWGKWGQGTLVTVSSGGGGSGGGGSGGGGSDIVLTQSPASLAVSPGQRATITCRASKSVSTSGYSYMHWYQQKPGQPPKLLIYLASNLESGVPARFSGSGSGTDFTLTINPVEANDTANYYCQHSRELLTFGQGTKVEIK
B4: the “affinity compared with P001018 clone” value with human CD200R1 [3] is recorded as “enhanced affinity”.

B5: L3-L95D: P001018 scFv mutant, SEQ ID NO: 170 (protein)
scFv: B4 scFv with K108Y, L233D
B5: the “affinity compared with P001018 clone” value with human CD200R1 [3] is recorded as “enhanced affinity”.

B6: L3-R92S: P001018 scFv mutant, SEQ ID NO: 167 (protein)
scFv: B4 scFv with K108Y, R230S
For the molecule B6, the “affinity compared with P001018 clone” value in the experiment with human CD200R1 [3] is “enhanced affinity”.

B7: L3-R92H: P001018 scFv mutant, SEQ ID NO: 166 (protein)
scFv: B4 scFv with K108Y, R230H
On to B7, for which the “affinity compared with P001018 clone” value in the experiment with human CD200R1 [3] was “enhanced affinity”.

B8: L3-T96R: P001018 scFv mutant, SEQ ID NO: 171 (protein)
scFv: B4 scFv with K108Y, T234R
B8: the “affinity compared with P001018 clone” value in the experiment with human CD200R1 [3] is “enhanced affinity”.

B9: L3-L94S: P001018 scFv mutant, SEQ ID NO: 168 (protein)
scFv: B4 scFv with K108Y, L232S
Consider B9, for which the “affinity compared with P001018 clone” value with human CD200R1 [3] is “enhanced affinity”.

B10: H3-Y102T: P001018 scFv mutant, SEQ ID NO: 165 (protein)
scFv: B4 scFv with K108T
B10: the “affinity compared with P001018 clone” value with human CD200R1 [3] was “enhanced affinity”.

B11: L3-L94H: P001018 scFv mutant, SEQ ID NO: 169 (protein)
scFv: B4 scFv with K108Y, L232H
Take B11: in the experiment with human CD200R1 [3], the “affinity compared with P001018 clone” value is reported as “enhanced affinity”.
